Measurements taken from the nanobody polyreactivity screen of Harvey et al. (2022).

Assay: yeast display, Sf9 membrane polyspecificity reagent, FACS + sequencing; frameworks hold sequencing errors
Outline: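 In a synthetic yeast display library (Saccharomyces cerevisiae BJ5465), nanobody expression was induced with galactose for 36–48 hours. FACS gates were set low and high (top ~1%) using anti-HA fluorescence for expression and streptavidin fluorescence for binding of the Sf9 membrane reagent. Each polyreactivity label is drawn from the gate of origin.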

Sequence	polyreactivity (PSR sort gate)
QVQLEESGGGLVQAGGSLRLSCAASGGTLRYYVMGSYRQAPGKERELVAAISWSGDSTYYADSVKGRFTISRDNAKNTVYLQMNSLKPEDTAVYYCAATYYLTYYYGQANHGYDYWGQGTQVTVSS	low polyreactivity
QVQLVESGGGLVQAGGSLRLSCAASGFIFSRYAMGWSRQAPGKERELVAAIRFSGSITYYADSVKGRFTISRDNAKNTVYLQMNSLKPEDTAVYYCAAYRRYYGWYEYWGQGTQVTVSS	high polyreactivity
QVQLVESGGGLVQAGGSLRLSCAASGLIFDINAMGWYRQAPGKERDLVAAISFSDGITYYADSVKGRFTISRDNAKNTVYLHMNSLKPEDTAVYYCAVDYRIYRSGPMDYWGQGTQVTVSS	high polyreactivity
QVQLVESGGGLVQAGGSLRLSCAPSGITFLHYAMGWYRQAPGKERELVAAITRGGITYYADSVKGRFTISRDNAKNSVYLLMNSLKPEDTAVYYCNALGFGSNYDYWGQGTQVTVSS	high polyreactivity
QVQLVESGGGLVQAGGSLRLSCAASGGILSDYAMGWYRQAPGKERELVAAITISGGRTNYADSVKGRFTFSRDNAKNTVYLQMNSLTPEDTAVYYCYKLPWEYDYWGQGTQVTVSS	low polyreactivity
QVQLVESGGGLVQAGGSLRLSCAASGRTFGGNTMGWYRQAPGKERELVAAISFSGGSTYYADSVKGRFTISRDNAKNTVYLQMNSLKPEDTAVYYCAREDYSHSFLTYDYWGQGTQVTVSS	low polyreactivity
QDQLVESGGGLVQAGGSLRLSCAASGRTFYANAMGWNRQAPGKERELVAAISSSDDITYYADSVKGRFTNSRDNAKNTVYLQINSMKPEDTAVYYCAAEEYIVTYSGFWQEYEYWGQGTQVTVSS	high polyreactivity
QVQLVESGGGLVQAGGSLRLICAASGFTFRYYAMGWYRQAPGTERELVAAISAGGGSTYYADSVKGRFTISRDNAKNTVYLQMNSLKPEETAVYYCAAAGARPGYDYWGQGTLVTVSS	high polyreactivity
QVHHVESGGGLVQAGGSLRLSCAAYGFIFNVYAMGWYRQAPGKERELVAAISTSGSNTYYADSVKGRFTISRDNAKNTVYLQMNSLKPEDTADYYCAAAYRYPSGRSFGYWGQGTQVTVSS	high polyreactivity
QVQLVESGGGLVQEGGSLRLSCAASGSTFWANAMGWYRQAPGKERELVAGITWNAGSTYYADSVKGRFTISRVDANNSVYLHMNSLKPEDTAVYYCAAFYHFQGWGPGYISWGQGTQVSVSS	low polyreactivity
QVQIVESGGGLVQAGGSLRLSCAASGRTYKYYAMGWYRQAPGKERELDAGITSGSSTSYADSVKGRFTISRDNAKNTVYLQMNSLKPEDTAVYYCAAGIYPYRYDYWGQGTQVTVSS	high polyreactivity
QVQLVESGGGLVQAGGSLRLSCAASGRILPSNAMGWYRQAPGKDRELVATISSSGGDTYYADSVKGRFTISRDNAKNTVYLQMKSLKPEDTAVYSCNAAGRTPSTGFDYDYWGQGTQVTVSS	low polyreactivity
QVQHVDSGAGLVQAGGSLRLRCSASGLILKDYAMGWSIQPPGKERELVAAISTSAGTTYYADSVKGRFTISRDNAKNTVYLQMKSQKPEETAVYYCAAGYLPYYIRYYHPVTVDYDYWGQGTQVTVSS	low polyreactivity
QVQLVESGGGIVQAGGSLRLSCAASGRIFAFNAMGWYRPAPGKERELVADITSSGVNTYYADSVKGRFTISRDNAINTVYLQMNSLKPEYTAVYYCAARSYLRWWVGMEYWGQGTQVTVSS	low polyreactivity
QVQLVESGGGLVQAGGSLRLSCAASGRIFWGYAMGWYRQAPGKERELVAGITTGGSTKYADSVKGRFTISRDNAKNTVYLQMNSLKPVDTAVYYCAADDQYGYVYYAFWGYDYWGQGTQVTVSS	low polyreactivity
QVHLVESGGGLVQAGGSLRLSCAASGRTFGWNVMGWYRQAPGKERELVAAISGSGGSTYYADSVKGRFTISRDNAKNTVYLQMNSLKPEVTAVYYCAALYGPGREYDYWGQGTQVTVSS	low polyreactivity
QVQLVESGGGLVQAGGSLRLSCAASGITFYPYVMGWYRQAPGKERELVAVITWSGGRTYYADSVKGRFTISRDNAKNTVYLQMNSLKPEDTAVYYCAADPLSGYDYWGQGTQVTVSS	low polyreactivity
